In series [1] the target is T1, MICALMO-CH (mMICAL-1 residues 2-615) (Mus musculus, UniProt Q8VDP3, Q78K).
T1 construct: gene Mical1; MO plus CH domains, residues 2-615, Q78K to remove a protease site; extra Gly from vector; N-terminal His-tag removed with TEV; E. coli BL21, codon-optimised
T1 sequence (Q8VDP3 2-615 Q78K): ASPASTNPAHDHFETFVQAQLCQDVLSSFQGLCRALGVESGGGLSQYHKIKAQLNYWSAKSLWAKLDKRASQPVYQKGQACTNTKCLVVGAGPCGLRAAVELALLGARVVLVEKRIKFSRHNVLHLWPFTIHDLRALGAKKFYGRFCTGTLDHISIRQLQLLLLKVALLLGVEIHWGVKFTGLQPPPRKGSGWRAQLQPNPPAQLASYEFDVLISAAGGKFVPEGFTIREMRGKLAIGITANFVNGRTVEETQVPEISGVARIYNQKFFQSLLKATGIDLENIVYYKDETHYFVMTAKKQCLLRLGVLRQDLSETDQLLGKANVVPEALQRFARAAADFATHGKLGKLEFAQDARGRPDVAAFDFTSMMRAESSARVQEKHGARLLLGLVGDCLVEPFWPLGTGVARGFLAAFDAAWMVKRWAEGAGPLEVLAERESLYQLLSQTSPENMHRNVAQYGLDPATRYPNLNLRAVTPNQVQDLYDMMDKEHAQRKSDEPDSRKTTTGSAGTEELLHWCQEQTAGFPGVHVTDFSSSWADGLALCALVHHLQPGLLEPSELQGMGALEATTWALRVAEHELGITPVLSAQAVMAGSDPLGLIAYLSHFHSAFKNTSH
The series can be described thus: X-ray crystallography, […] and […] Å. Type of series: binding. Particulars: oxidised FAD in the MO domain; two crystal forms.

Substrate in the series “purified protein”: NC(=O)C1=CN([C@@H]2O[C@H](COP(=O)(O)OP(=O)(O)OC[C@H]3O[C@@H](n4cnc5c(N)ncnc54)[C@H](OP(=O)(O)O)[C@@H]3O)[C@@H](O)[C@H]2O)C=CC1
In words: purified protein. Type of series: biochemical, Mus musculus. Particulars: no F-actin, O2 as acceptor, 5 mM Tris-HCl pH 8.0, 50 mM KCl, 2 mM MgCl2, 0.2 mM CaCl2, 0.5 mM DTT, 1 mM ATP, 600 nM enzyme.

With `Cc1cc2nc3c(=O)[nH]c(=O)nc-3n(C[C@H](O)[C@H](O)[C@H](O)COP(=O)(O)OP(=O)(O)OC[C@H]3O[C@@H](n4cnc5c(N)ncnc54)[C@H](O)[C@@H]3O)c2cc1C` [FAD], in series [1], the “X-ray crystallography, 2.31 and 2.88 Å” value was “In both crystal forms the FAD cofactor is oxidized and accessible through two openings”.

B1: MICALMO (mouse MICAL-1 MO domain, residues 1-484) (Mus musculus) (protein)
chain: MASPASTNPAHDHFETFVQAQLCQDVLSSFQGLCRALGVESGGGLSQYHKIKAQLNYWSAKSLWAKLDKRASQPVYQQGQACTNTKCLVVGAGPCGLRAAVELALLGARVVLVEKRIKFSRHNVLHLWPFTIHDLRALGAKKFYGRFCTGTLDHISIRQLQLLLLKVALLLGVEIHWGVKFTGLQPPPRKGSGWRAQLQPNPPAQLASYEFDVLISAAGGKFVPEGFTIREMRGKLAIGITANFVNGRTVEETQVPEISGVARIYNQKFFQSLLKATGIDLENIVYYKDETHYFVMTAKKQCLLRLGVLRQDLSETDQLLGKANVVPEALQRFARAAADFATHGKLGKLEFAQDARGRPDVAAFDFTSMMRAESSARVQEKHGARLLLGLVGDCLVEPFWPLGTGVARGFLAAFDAAWMVKRWAEGAGPLEVLAERESLYQLLSQTSPENMHRNVAQYGLDPATRYPNLNLRAVTPNQVQDLYD
notes: isolated N-terminal FAD monooxygenase domain, residues 1-484 of 1048
With B1, in the series “purified protein”, the Km was determined as 28.8 ± 2.2 µM and the kcat was found to be 0.68 ± 0.02 s⁻¹.

B2: MICALMO-CH (mMICAL-1 residues 2-615) (Mus musculus; Q78K) (protein)
chain: ASPASTNPAHDHFETFVQAQLCQDVLSSFQGLCRALGVESGGGLSQYHKIKAQLNYWSAKSLWAKLDKRASQPVYQKGQACTNTKCLVVGAGPCGLRAAVELALLGARVVLVEKRIKFSRHNVLHLWPFTIHDLRALGAKKFYGRFCTGTLDHISIRQLQLLLLKVALLLGVEIHWGVKFTGLQPPPRKGSGWRAQLQPNPPAQLASYEFDVLISAAGGKFVPEGFTIREMRGKLAIGITANFVNGRTVEETQVPEISGVARIYNQKFFQSLLKATGIDLENIVYYKDETHYFVMTAKKQCLLRLGVLRQDLSETDQLLGKANVVPEALQRFARAAADFATHGKLGKLEFAQDARGRPDVAAFDFTSMMRAESSARVQEKHGARLLLGLVGDCLVEPFWPLGTGVARGFLAAFDAAWMVKRWAEGAGPLEVLAERESLYQLLSQTSPENMHRNVAQYGLDPATRYPNLNLRAVTPNQVQDLYDMMDKEHAQRKSDEPDSRKTTTGSAGTEELLHWCQEQTAGFPGVHVTDFSSSWADGLALCALVHHLQPGLLEPSELQGMGALEATTWALRVAEHELGITPVLSAQAVMAGSDPLGLIAYLSHFHSAFKNTSH
notes: MO plus CH domains, residues 2-615, Q78K to remove a protease site; extra Gly from vector; N-terminal His-tag removed with TEV; E. coli BL21, codon-optimised
Consider B2, for which, in “purified protein”, the Michaelis constant (Km) came to 37.7 ± 8.4 µM and the turnover number (kcat) worked out at 1.7 ± 0.5 s⁻¹.

A word on the Km: it is the concentration of substrate that gives half-maximal velocity. Broadly, the kcat is the maximal rate divided by the concentration of active sites.

Values taken from PMC4792234, “Modulation of MICAL Monooxygenase Activity by its Calponin Homology Domain: Structural and Mechanistic Insights” (Scientific Reports, 2016).
